Test results taken from PMC9482650, “Quantitative fragmentomics allow affinity mapping of interactomes” (Nature Communications, 2022).

T1: MPDZ_12, O75970
T1 sequence (O75970 1857-1958, limits assumed, looked up): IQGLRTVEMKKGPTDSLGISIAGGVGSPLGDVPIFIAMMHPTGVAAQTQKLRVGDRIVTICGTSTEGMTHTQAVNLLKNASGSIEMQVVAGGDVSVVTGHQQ

T2: SHANK1, Q9Y566
T2 sequence (Q9Y566 658-767, limits assumed, looked up): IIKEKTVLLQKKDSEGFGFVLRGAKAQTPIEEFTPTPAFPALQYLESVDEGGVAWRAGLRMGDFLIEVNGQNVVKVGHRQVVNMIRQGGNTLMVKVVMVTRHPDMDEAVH

T3: PTPN13_1, Q12923
T3 sequence (Q12923 1088-1188, limits assumed, looked up): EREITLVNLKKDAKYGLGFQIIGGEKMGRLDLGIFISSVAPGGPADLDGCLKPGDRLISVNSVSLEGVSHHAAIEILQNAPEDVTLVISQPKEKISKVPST

T4: PDZD7_3, Q9H5P4
T4 sequence (Q9H5P4 857-944, limits assumed, looked up): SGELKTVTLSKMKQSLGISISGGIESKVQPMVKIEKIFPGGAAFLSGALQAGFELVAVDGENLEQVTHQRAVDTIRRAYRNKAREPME

T5: DFNB31_1, Q9P202
T5 sequence (Q9P202 135-233, limits assumed, looked up): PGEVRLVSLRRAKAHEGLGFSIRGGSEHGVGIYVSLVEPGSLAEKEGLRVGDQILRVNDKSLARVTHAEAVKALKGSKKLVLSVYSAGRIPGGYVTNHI

T6: DFNB31_3, Q9P202
T6 sequence (Q9P202 811-907, limits assumed, looked up): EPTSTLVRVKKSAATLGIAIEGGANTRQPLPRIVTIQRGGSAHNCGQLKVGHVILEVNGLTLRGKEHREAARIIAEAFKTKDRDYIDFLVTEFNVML

T7: APBA1_2, Q02410
T7 sequence (Q02410 742-832, limits assumed, looked up): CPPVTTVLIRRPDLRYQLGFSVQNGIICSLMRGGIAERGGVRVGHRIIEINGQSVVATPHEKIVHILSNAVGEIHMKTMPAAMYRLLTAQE

T8: GRIP1_7, Q9Y3R0
T8 sequence (Q9Y3R0 999-1096, limits assumed, looked up): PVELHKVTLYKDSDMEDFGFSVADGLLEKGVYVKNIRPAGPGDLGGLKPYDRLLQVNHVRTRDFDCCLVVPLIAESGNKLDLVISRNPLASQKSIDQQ

T9: SYNJ2BP, P57105
T9 sequence (P57105 8-110, limits assumed, looked up): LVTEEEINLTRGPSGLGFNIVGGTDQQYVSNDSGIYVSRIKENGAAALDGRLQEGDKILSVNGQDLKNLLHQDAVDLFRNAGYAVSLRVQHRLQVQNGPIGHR

T10: GRIP1_3, Q9Y3R0
T10 sequence (Q9Y3R0 247-346, limits assumed, looked up): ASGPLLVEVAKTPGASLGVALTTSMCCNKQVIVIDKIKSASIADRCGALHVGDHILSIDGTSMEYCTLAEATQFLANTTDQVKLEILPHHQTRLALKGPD

T11: APBA3_1, O96018
T11 sequence (O96018 389-490, limits assumed, looked up): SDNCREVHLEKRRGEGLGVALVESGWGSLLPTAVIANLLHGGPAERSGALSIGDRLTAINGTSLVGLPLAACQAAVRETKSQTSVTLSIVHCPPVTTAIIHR

T12: MPP6, Q9NZW5
T12 sequence (Q9NZW5 125-219, limits assumed, looked up): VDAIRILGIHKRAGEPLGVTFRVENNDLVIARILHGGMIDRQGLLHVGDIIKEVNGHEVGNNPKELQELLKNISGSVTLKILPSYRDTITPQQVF


What was measured:
Assay in all cases: holdup assay
Design in all cases: key: below the threshold = too weak to quantify, mostly under pKd 3.1 to 4
Conditions in all cases: plain residues with an end cap or a label only (N-terminal biotin on a linker: ado-ado)
FRMPD2_3, Q68DX3 = target: FRMPD2_3, Q68DX3
Chain of FRMPD2_3, Q68DX3 (Q68DX3 1073-1166): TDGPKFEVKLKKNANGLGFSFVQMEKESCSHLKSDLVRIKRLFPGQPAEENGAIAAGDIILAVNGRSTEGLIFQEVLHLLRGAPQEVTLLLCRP

DLG1_1, Q12959 = target: DLG1_1, Q12959
DLG4_2, P78352 = target: DLG4_2, P78352
Chain of DLG4_2, P78352 (P78352 155-259): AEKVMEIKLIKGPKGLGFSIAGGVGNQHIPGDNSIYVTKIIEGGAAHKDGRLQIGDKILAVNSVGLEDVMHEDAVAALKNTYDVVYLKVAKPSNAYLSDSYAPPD

PDZRN4_1, Q6ZMN7 = target: PDZRN4_1, Q6ZMN7
Chain of PDZRN4_1, Q6ZMN7 (Q6ZMN7 213-318): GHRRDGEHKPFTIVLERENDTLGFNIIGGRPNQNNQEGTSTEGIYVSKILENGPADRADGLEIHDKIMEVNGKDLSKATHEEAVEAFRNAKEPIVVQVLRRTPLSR

Inadl_8, Q8NI35 = target: Inadl_8, Q8NI35
Chain of Inadl_8, Q8NI35 (Q8NI35 1425-1530): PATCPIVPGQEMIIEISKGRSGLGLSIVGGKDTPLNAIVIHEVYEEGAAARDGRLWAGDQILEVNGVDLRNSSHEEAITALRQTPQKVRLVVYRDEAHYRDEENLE

TJP1_3, Q07157 = target: TJP1_3, Q07157
Chain of TJP1_3, Q07157 (Q07157 416-512): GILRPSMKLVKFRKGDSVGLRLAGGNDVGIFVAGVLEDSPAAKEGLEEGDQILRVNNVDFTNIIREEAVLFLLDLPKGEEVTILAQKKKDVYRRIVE

MPDZ_12, O75970 = target: T1, MPDZ_12, O75970
SHANK1, Q9Y566 = target: T2, SHANK1, Q9Y566
PTPN13_1, Q12923 = target: T3, PTPN13_1, Q12923
PDZD7_3, Q9H5P4 = target: T4, PDZD7_3, Q9H5P4
DFNB31_1, Q9P202 = target: T5, DFNB31_1, Q9P202
DFNB31_3, Q9P202 = target: T6, DFNB31_3, Q9P202
NHERF2_2, Q15599 = target: NHERF2_2, Q15599
Chain of NHERF2_2, Q15599 (Q15599 142-238): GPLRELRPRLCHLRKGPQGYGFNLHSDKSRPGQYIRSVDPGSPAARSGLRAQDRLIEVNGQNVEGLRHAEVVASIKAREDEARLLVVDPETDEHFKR

APBA1_2, Q02410 = target: T7, APBA1_2, Q02410
GRID2IP_2, A4D2P6 = target: GRID2IP_2, A4D2P6
Chain of GRID2IP_2, A4D2P6 (A4D2P6 272-370): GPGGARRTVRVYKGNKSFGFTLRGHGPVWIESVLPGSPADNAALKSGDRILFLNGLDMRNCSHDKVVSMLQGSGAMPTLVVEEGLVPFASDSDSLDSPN

GRIP1_7, Q9Y3R0 = target: T8, GRIP1_7, Q9Y3R0
AHNAK1, Q09666 = target: AHNAK1, Q09666
Chain of AHNAK1, Q09666 (Q09666 4-100): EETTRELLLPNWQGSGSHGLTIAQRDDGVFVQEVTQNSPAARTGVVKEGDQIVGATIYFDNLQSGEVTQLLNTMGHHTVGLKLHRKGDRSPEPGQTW

SYNJ2BP, P57105 = target: T9, SYNJ2BP, P57105
GRIP1_3, Q9Y3R0 = target: T10, GRIP1_3, Q9Y3R0
GRID2IP_1, A4D2P6 = target: GRID2IP_1, A4D2P6
Chain of GRID2IP_1, A4D2P6 (A4D2P6 1-87): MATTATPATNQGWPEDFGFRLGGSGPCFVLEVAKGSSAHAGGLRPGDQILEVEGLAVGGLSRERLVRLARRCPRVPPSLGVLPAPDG

DLG4_3, P78352 = target: DLG4_3, P78352
Chain of DLG4_3, P78352 (P78352 306-403): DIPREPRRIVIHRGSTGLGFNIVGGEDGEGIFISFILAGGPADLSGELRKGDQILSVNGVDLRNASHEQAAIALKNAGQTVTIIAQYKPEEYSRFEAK

DLG5_1, Q8TDM6 = target: DLG5_1, Q8TDM6
Chain of DLG5_1, Q8TDM6 (Q8TDM6 617-713): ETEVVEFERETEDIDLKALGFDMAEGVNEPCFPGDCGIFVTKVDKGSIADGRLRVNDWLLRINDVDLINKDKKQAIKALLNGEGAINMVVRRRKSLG

MAGI1_1, Q96QZ7 = target: MAGI1_1, Q96QZ7
Chain of MAGI1_1, Q96QZ7 (Q96QZ7 1-106): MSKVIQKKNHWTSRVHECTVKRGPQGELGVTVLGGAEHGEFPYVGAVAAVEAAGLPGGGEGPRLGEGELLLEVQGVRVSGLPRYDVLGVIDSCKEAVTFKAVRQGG

MAGI1_2, Q96QZ7 = target: MAGI1_2, Q96QZ7
Chain of MAGI1_2, Q96QZ7 (Q96QZ7 456-580): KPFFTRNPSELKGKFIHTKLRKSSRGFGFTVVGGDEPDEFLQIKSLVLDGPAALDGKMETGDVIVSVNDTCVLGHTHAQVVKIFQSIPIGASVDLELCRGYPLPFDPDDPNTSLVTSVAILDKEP

APBA3_1, O96018 = target: T11, APBA3_1, O96018
MPP6, Q9NZW5 = target: T12, MPP6, Q9NZW5

Binder	pKd (FRMPD2_3, Q68DX3)	pKd (DLG1_1, Q12959)	pKd (DLG4_2, P78352)	pKd (PDZRN4_1, Q6ZMN7)	pKd (Inadl_8, Q8NI35)	pKd (TJP1_3, Q07157)	pKd (MPDZ_12, O75970)	pKd (SHANK1, Q9Y566)	pKd (PTPN13_1, Q12923)	pKd (PDZD7_3, Q9H5P4)	pKd (DFNB31_1, Q9P202)	pKd (DFNB31_3, Q9P202)	pKd (NHERF2_2, Q15599)	pKd (APBA1_2, Q02410)	pKd (GRID2IP_2, A4D2P6)	pKd (GRIP1_7, Q9Y3R0)	pKd (AHNAK1, Q09666)	pKd (SYNJ2BP, P57105)	pKd (GRIP1_3, Q9Y3R0)	pKd (GRID2IP_1, A4D2P6)	also measured
HDDYFYHDEL [RCN2, Q14257]	below the threshold	below the threshold	below the threshold	below the threshold	below the threshold	below the threshold	below the threshold	below the threshold	below the threshold	below the threshold	below the threshold	below the threshold	4.11	3.98	below the threshold	below the threshold	below the threshold	below the threshold	below the threshold	below the threshold	pKd (DLG4_3, P78352): 3.53; pKd (DLG5_1, Q8TDM6): below the threshold; pKd (MAGI1_1, Q96QZ7): below the threshold; pKd (MAGI1_2, Q96QZ7): below the threshold; pKd (APBA3_1, O96018): below the threshold; pKd (MPP6, Q9NZW5): 3.74
KKTPVSRSHL [SLC22A3, O75751]	below the threshold	below the threshold	below the threshold	3.66	below the threshold	below the threshold	below the threshold	4.54	below the threshold	3.91	below the threshold	below the threshold	3.92	3.77	5.18	below the threshold	below the threshold	below the threshold	below the threshold	below the threshold	pKd (DLG4_3, P78352): below the threshold; pKd (DLG5_1, Q8TDM6): below the threshold; pKd (MAGI1_1, Q96QZ7): below the threshold; pKd (MAGI1_2, Q96QZ7): 3.62; pKd (APBA3_1, O96018): below the threshold; pKd (MPP6, Q9NZW5): below the threshold
KAEEKPPSKV [SCN4B, Q8IWT1]	below the threshold	below the threshold	below the threshold	below the threshold	3.98	below the threshold	3.49	below the threshold	below the threshold	below the threshold	3.57	below the threshold	below the threshold	3.85	below the threshold	below the threshold	below the threshold	below the threshold	below the threshold	below the threshold	pKd (DLG4_3, P78352): below the threshold; pKd (DLG5_1, Q8TDM6): below the threshold; pKd (MAGI1_1, Q96QZ7): below the threshold; pKd (MAGI1_2, Q96QZ7): below the threshold; pKd (APBA3_1, O96018): below the threshold; pKd (MPP6, Q9NZW5): below the threshold
LPPPESESKV [KCNJ9, Q92806]	below the threshold	below the threshold	3.67	below the threshold	below the threshold	below the threshold	below the threshold	below the threshold	below the threshold	below the threshold	4.01	below the threshold	below the threshold	below the threshold	below the threshold	below the threshold	below the threshold	4.02	below the threshold	below the threshold	pKd (DLG4_3, P78352): below the threshold; pKd (DLG5_1, Q8TDM6): below the threshold; pKd (MAGI1_1, Q96QZ7): below the threshold; pKd (MAGI1_2, Q96QZ7): below the threshold; pKd (APBA3_1, O96018): below the threshold; pKd (MPP6, Q9NZW5): below the threshold
NNMAFETTHF [SLC5A12, Q1EHB4]	below the threshold	below the threshold	below the threshold	below the threshold	below the threshold	below the threshold	below the threshold	5.81	below the threshold	below the threshold	4.01	3.78	4.7	3.62	3.49	below the threshold	below the threshold	below the threshold	below the threshold	below the threshold	pKd (DLG4_3, P78352): below the threshold; pKd (DLG5_1, Q8TDM6): below the threshold; pKd (MAGI1_1, Q96QZ7): below the threshold; pKd (MAGI1_2, Q96QZ7): below the threshold; pKd (APBA3_1, O96018): below the threshold; pKd (MPP6, Q9NZW5): below the threshold
